Assay results from US20070059309A1 (Genentech, published 2007).

Experiments:
Test in all cases: cell-based or functional assay
[1] = biological target: recombinant human IFN-α4 (human, UniProt P05014 24-189)
[2] = biological target: T1, recombinant human IFN-α5 (human, UniProt P01569 24-189, limits assumed)
[3] = biological target: T1, recombinant human IFN-α5; remark: listed apart in the source
[4] = biological target: recombinant human IFN-α1 (human)
Sequence of recombinant human IFN-α1 (human) (P01562 24-189): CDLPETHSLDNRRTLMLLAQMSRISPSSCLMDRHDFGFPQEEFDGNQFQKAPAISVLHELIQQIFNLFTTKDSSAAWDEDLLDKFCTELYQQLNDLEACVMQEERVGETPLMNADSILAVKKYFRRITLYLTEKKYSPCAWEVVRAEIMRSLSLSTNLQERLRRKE

T1 sequence (P01569 24-189 limits assumed): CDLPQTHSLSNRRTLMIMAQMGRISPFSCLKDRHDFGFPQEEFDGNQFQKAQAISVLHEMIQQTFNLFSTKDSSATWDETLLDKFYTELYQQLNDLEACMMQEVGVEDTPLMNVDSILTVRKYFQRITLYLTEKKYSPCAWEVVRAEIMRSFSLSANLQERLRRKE
Sequence of recombinant human IFN-α4 (P05014 24-189 limits assumed): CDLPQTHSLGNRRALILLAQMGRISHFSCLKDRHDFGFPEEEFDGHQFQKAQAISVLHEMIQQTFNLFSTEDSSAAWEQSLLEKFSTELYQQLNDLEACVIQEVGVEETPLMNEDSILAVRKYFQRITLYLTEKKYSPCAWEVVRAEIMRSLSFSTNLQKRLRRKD

Binder | EC50 (read off the curve); neutralization of anti-viral activity, EMC virus / A549 cells [1] [µg/mL] | EC50 (read off the curve); neutralization of anti-viral activity, EMC virus / A549 cells [2] [µg/mL] | EC50 (read off the curve); neutralization of anti-viral activity, EMC virus / A549 cells [left panel] [3] [µg/mL] | EC50 (read off the curve); neutralization of anti-viral activity, EMC virus / A549 cells [right panel] [4] [µg/mL]
murine anti-human IFN-α monoclonal antibody 9F3 (antibody, IgG2, V domains shown) VL: DIVLTQSPASLAVSLGQRATISCRASQSVSTSSYSYMHWYQQKPGQPPKVLISYASNLESGVPARFSGSGSGTDFTLNIHPVEEGDTATYFCQHSWGIPRTFGAGTKLELRR V domain: EVQLQQSGPELVKPGASVKISCKTSGYTFTEYIIHWVKQGHGRSLEWIGSINPDYDITNYNQRFKGKATLTLDKSSRTAYLELRSLTSEDSAVYYCASWISDFFDYWGQGTTLMVSA | ~1 | ~1 | ~0.2 | 
chimeric protein CH8-2 (antibody, V domains shown) VL: DIVLTQSPASLAVSLGQRATISCRASQSVSTSSYSYMHWYQQKPGQPPKVLISYASNLESGVPARFSGSGSGTDFTLNIHPVEEGDTATYFCQHSWGIPRTFGAGTKLELRR V domain: EVQLQQSGPELVKPGASVKISCKTSGYTFTEYIIHWVKQGHGRSLEWIGSINPDYDITNYNQRFKGKATLTLDKSSRTAYLELRSLTSEDSAVYYCASWISDFFDYWGQGTTLMVSA |  |  |  | ~2
